For assay [1], the target named is recombinant cynomolgus monkey CD3ε/δ heterodimer (cynomolgus monkey) (UniProt Q95LI5). The experiment in a line: ELISA, coated CD3ε/δ.
The target of assay [2] is recombinant human CD3ε/δ heterodimer (human) (UniProt P07766). The experiment in a line: ELISA, coated CD3ε/δ. (In an ELISA, binding on a coated surface is turned into a signal by an enzyme label.)

The results in this text go back to patent US20200317779A1.

Sequence of recombinant human CD3ε/δ heterodimer (human) (P07766 23-126, stated change not applied, chain 1 of 2): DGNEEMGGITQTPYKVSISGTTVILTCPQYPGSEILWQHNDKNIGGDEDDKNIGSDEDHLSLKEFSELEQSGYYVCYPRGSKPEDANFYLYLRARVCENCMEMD
Sequence of recombinant human CD3ε/δ heterodimer (human) (P04234 22-105, stated change not applied, chain 2 of 2, further chain): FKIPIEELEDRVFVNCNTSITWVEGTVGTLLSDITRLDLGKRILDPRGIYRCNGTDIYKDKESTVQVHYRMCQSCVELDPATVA
Sequence of recombinant cynomolgus monkey CD3ε/δ heterodimer (cynomolgus monkey) (Q95LI5 22-117, stated change not applied, chain 1 of 2): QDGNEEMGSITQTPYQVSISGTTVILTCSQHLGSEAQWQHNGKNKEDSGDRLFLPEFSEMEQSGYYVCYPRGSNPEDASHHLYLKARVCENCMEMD
Sequence of recombinant cynomolgus monkey CD3ε/δ heterodimer (cynomolgus monkey) (Q95LI8 22-105, stated change not applied, chain 2 of 2, further chain): as the sequence (P04234 22-105, stated change not applied, chain 2 of 2, further chain) above, with I5V, N15K, I20V, S32T, D33N, I34N, T64A, S74N, V83L counted along it

B1: E12 (antibody, human IgG1, lambda, L234A L235A, V domains shown)
VH: EVQLVESGGGLVQPGGSLKLSCAASGFTFNTYAMNWVRQASGKGLEWVARIRSKYNNYATYYADSVKDRFTISRDDSKNTAYLQMNSLKTEDTAVYYCVRHGNFGNSYVSWFAYWGQGTLVTVSS
VL: QAVVTQEPSLTVSPGGTVTLTCRSSTGAVTTSNYANWVQQKPGQAPRTLIGGTNKRAPWTPARFSGSLLGDKAALTLSGAQPEDEAEYYCALWYSNLWVFGGGTKLTVLG
B1: the Absorbance (450 nm) in assay [1] turned out to be 0.064; in assay [2] it was 0.088.

B2: F03 (antibody, human IgG1, lambda, L234A L235A, V domains shown)
VH: EVQLVESGGGLVQPGGSLKLSCAASGFTFNTYAMNWVRQASGKGLEWVARIRSKYNNYATYYADSVKDRFTISRDDSKNTLYLQMNSLKTEDTAVYYCVRHGNFGNSYVSWFAYWGQGTLVTVSS
VL: QAVVTQEPSLTVSPGGTVTLTCRSSTGAVTTSNYANWFQQKPGQAPRTLIGGTNKRAPWTPARFSGSLLGGKAALTLSGAQPEDEAEYYCALWYSNLWVFGGGTKLTVLG
In the case of B2, the Absorbance (450 nm) in assay [1] worked out at 0.101; in assay [2] it was 0.128.

B3: A09 (antibody, human IgG1, lambda, L234A L235A, V domains shown)
VH: EVQLVESGGGLVQPGGSLKLSCAASGFTFNTYAMNWVRQASGKGLEWVGRIRSKYNNYATYYADSVKDRFTISRDDSKNTAYLQMNSLKTEDTAVYYCVRHGNFGNSYVSWFAYWGQGTLVTVSS
VL: QAVVTQEPSLTVSPGGTVTLTCRSSTGAVTTSNYANWVQQKPGQAPRTLIYGTNKRAPWTPARFSGSLLGGKAALTLSGAQPEDEAEYYCALWYSNLWVFGGGTKLTVLG
As for B3, the Absorbance (450 nm) in assay [1] worked out at 0.05; in assay [2], 0.092.

B4: F01 (antibody, human IgG1, lambda, L234A L235A, V domains shown)
VH: EVQLVESGGGLVQPGGSLKLSCAASGFTFNTYAMNWVRQASGKGLEWVARIRSKYNNYATYYADSVKDRFTISRDDSKNTLYLQMNSLKTEDTAVYYCVRHGNFGNSYVSWFAYWGQGTLVTVSS
VL: QAVVTQEPSLTVSPGGTVTLTCRSSTGAVTTSNYANWFQQKPGQAPRTLIYGTNKRAPWTPARFSGSLLGGKAALTLSGAQPEDEAEYYCALWYSNLWVFGGGTKLTVLG
As for B4, the Absorbance (450 nm) was 0.086 in assay [1] and 0.118 in assay [2].

B5: E13 (antibody, human IgG1, lambda, L234A L235A, V domains shown)
VH: EVQLVESGGGLVQPGGSLKLSCAASGFTFNTYAMNWVRQASGKGLEWVARIRSKYNNYATYYADSVKDRFTISRDDSKNTAYLQMNSLKTEDTAVYYCVRHGNFGNSYVSWFAYWGQGTLVTVSS
VL: QAVVTQEPSLTVSPGGTVTLTCRSSTGAVTTSNYANWVQQKPGQAPRGLIYGTNKRAPWTPARFSGSLLGGKAALTLSGAQPEDEAEYYCALWYSNLWVFGGGTKLTVLG
Take B5: the Absorbance (450 nm) in assay [1] worked out at 0.114; in assay [2], 0.139.

B6: E14 (antibody, human IgG1, lambda, L234A L235A, V domains shown)
VH: EVQLVESGGGLVQPGGSLKLSCAASGFTFNTYAMNWVRQASGKGLEWVARIRSKYNNYATYYADSVKDRFTISRDDSKNTAYLQMNSLKTEDTAVYYCVRHGNFGNSYVSWFAYWGQGTLVTVSS
VL: QAVVTQEPSLTVSPGGTVTLTCRSSTGAVTTSNYANWVQQKPGQAPRGLIYGTNKRAPWTPARFSGSLLGDKAALTLSGAQPEDEAEYYCALWYSNLWVFGGGTKLTVLG
Consider B6, for which the Absorbance (450 nm) in assay [1] was determined as 0.078; in assay [2] it was 0.105.

B7: F07 (antibody, human IgG1, lambda, L234A L235A, V domains shown)
VH: EVQLVESGGGLVQPGGSLKLSCAASGFTFNTYAMNWVRQASGKGLEWVARIRSKYNNYATYYADSVKDRFTISRDDSKNTLYLQMNSLKTEDTAVYYCVRHGNFGNSYVSWFAYWGQGTLVTVSS
VL: QAVVTQEPSLTVSPGGTVTLTCRSSTGAVTTSNYANWFQQKPGQAPRGLIGGTNKRAPWTPARFSGSLLGGKAALTLSGAQPEDEAEYYCALWYSNLWVFGGGTKLTVLG
Consider B7, for which the Absorbance (450 nm) in assay [1] came to 0.163; in assay [2], 0.133.

B8: F09 (antibody, human IgG1, lambda, L234A L235A, V domains shown)
VH: EVQLVESGGGLVQPGGSLKLSCAASGFTFNTYAMNWVRQASGKGLEWVARIRSKYNNYATYYADSVKDRFTISRDDSKNTLYLQMNSLKTEDTAVYYCVRHGNFGNSYVSWFAYWGQGTLVTVSS
VL: QAVVTQEPSLTVSPGGTVTLTCRSSTGAVTTSNYANWVQQKPGQAPRTLIYGTNKRAPWTPARFSGSLLGGKAALTLSGAQPEDEAEYYCALWYSNLWVFGGGTKLTVLG
For the molecule B8, the Absorbance (450 nm) in assay [1] is 0.084; in assay [2], 0.099.

B9: F08 (antibody, human IgG1, lambda, L234A L235A, V domains shown)
VH: EVQLVESGGGLVQPGGSLKLSCAASGFTFNTYAMNWVRQASGKGLEWVARIRSKYNNYATYYADSVKDRFTISRDDSKNTLYLQMNSLKTEDTAVYYCVRHGNFGNSYVSWFAYWGQGTLVTVSS
VL: QAVVTQEPSLTVSPGGTVTLTCRSSTGAVTTSNYANWFQQKPGQAPRGLIGGTNKRAPWTPARFSGSLLGDKAALTLSGAQPEDEAEYYCALWYSNLWVFGGGTKLTVLG
On to B9, for which the values for the Absorbance (450 nm) in assay [1] and in assay [2] were 0.18 and 0.134, respectively.

B10: F04 (antibody, human IgG1, lambda, L234A L235A, V domains shown)
VH: EVQLVESGGGLVQPGGSLKLSCAASGFTFNTYAMNWVRQASGKGLEWVARIRSKYNNYATYYADSVKDRFTISRDDSKNTLYLQMNSLKTEDTAVYYCVRHGNFGNSYVSWFAYWGQGTLVTVSS
VL: QAVVTQEPSLTVSPGGTVTLTCRSSTGAVTTSNYANWFQQKPGQAPRTLIGGTNKRAPWTPARFSGSLLGDKAALTLSGAQPEDEAEYYCALWYSNLWVFGGGTKLTVLG
Turning to B10, the Absorbance (450 nm) is 0.069 in assay [1] and 0.084 in assay [2].

B11: F05 (antibody, human IgG1, lambda, L234A L235A, V domains shown)
VH: EVQLVESGGGLVQPGGSLKLSCAASGFTFNTYAMNWVRQASGKGLEWVARIRSKYNNYATYYADSVKDRFTISRDDSKNTLYLQMNSLKTEDTAVYYCVRHGNFGNSYVSWFAYWGQGTLVTVSS
VL: QAVVTQEPSLTVSPGGTVTLTCRSSTGAVTTSNYANWFQQKPGQAPRGLIYGTNKRAPWTPARFSGSLLGGKAALTLSGAQPEDEAEYYCALWYSNLWVFGGGTKLTVLG
In the case of B11, the Absorbance (450 nm) in assay [1] worked out at 0.075; in assay [2], 0.105.

B12: F06 (antibody, human IgG1, lambda, L234A L235A, V domains shown)
VH: EVQLVESGGGLVQPGGSLKLSCAASGFTFNTYAMNWVRQASGKGLEWVARIRSKYNNYATYYADSVKDRFTISRDDSKNTLYLQMNSLKTEDTAVYYCVRHGNFGNSYVSWFAYWGQGTLVTVSS
VL: QAVVTQEPSLTVSPGGTVTLTCRSSTGAVTTSNYANWFQQKPGQAPRGLIYGTNKRAPWTPARFSGSLLGDKAALTLSGAQPEDEAEYYCALWYSNLWVFGGGTKLTVLG
With B12, the Absorbance (450 nm) in assay [1] is 0.096; in assay [2], 0.115.

B13: F02 (antibody, human IgG1, lambda, L234A L235A, V domains shown)
VH: EVQLVESGGGLVQPGGSLKLSCAASGFTFNTYAMNWVRQASGKGLEWVARIRSKYNNYATYYADSVKDRFTISRDDSKNTLYLQMNSLKTEDTAVYYCVRHGNFGNSYVSWFAYWGQGTLVTVSS
VL: QAVVTQEPSLTVSPGGTVTLTCRSSTGAVTTSNYANWFQQKPGQAPRTLIYGTNKRAPWTPARFSGSLLGDKAALTLSGAQPEDEAEYYCALWYSNLWVFGGGTKLTVLG
For the molecule B13, the Absorbance (450 nm) in assay [1] worked out at 0.076; in assay [2], 0.093.
